Experiment: yeast display, Sf9 membrane polyspecificity reagent, FACS + sequencing; frameworks hold sequencing errors
Outline: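 Polyreactivity labels are assigned by the sorting gate from which each nanobody was recovered. The gates were low and high (top ~1%), set on anti-HA fluorescence for expression and streptavidin fluorescence for reagent binding. Before sorting, galactose-induced (36–48 hours) yeast display cells were stained for 1 hour at 4 °C with 10% biotinylated, detergent-solubilized Sf9 membrane reagent.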

| Sequence | polyreactivity (PSR sort gate) |
| --- | --- |
| QVQLVESGGGLVQAGGSLRLSCAASGSIFQYYAMGWYRQAPGKEREFVAAISSSGGSTYYADSVKGRFTISRDNAKNTVSLQMNSLKPEDNAVYYCNTPYNGFRFDYWGQGTQVTVSS | low polyreactivity |
| QVQLVESGGGLVQAGGSLRLSCAASGIIFIYYTMGWYRQSPGKERELVAVITTSGDGTYYADSVKGRFTISRDNAKNTVYLQMNSLKPEDTAVYYCAASYSTWVSTRNDYWGQGTQVTVSS | low polyreactivity |
| QVQLVESGGGLVQAGGSLRLTCAASGRTFFYNAMGWYRPAPGKERELVAAISWSGGRTYYADSVKGRFTISRDNAKNTVYLQMNSLKPEDTAVYYCASTGFYSSHYHLDYWGQGTQLTVSS | high polyreactivity |
| QVQLVQSGGGLVQAGGSLRLSCAASGLIFYPYAMGWYRQAPGKERELVAAITSGDSTYYADSVKGRFTISRDNAKNTVYLQMNSLKPEDTAVYYCNAYQWGGRYWLVTYDYWGQGTQVTVSS | low polyreactivity |
| QVQLQESGGGLVQAGGSLRLSCAASGSISLGDNMGWYRQAPGKEREFVATISVGGITYYVDSVKGRFTISRDIAKNTVYLQMNSLKPEDTAVYYCAALDIYYFRYYYWGQGTQVTVSS | low polyreactivity |
| QVQLVESGGGLVQAGGSLRLSCAASGRTFGTYAMGWYRQAPGKERELVAAITSGTRTYYADSVKGRFTISRDNAKNTVYLQMNSLKPEDTAVYDCAAGLVYRWSSTPRRLYYYWGQGTQVTVSS | high polyreactivity |
| QVQLVESGGGLVQAGGRLRLSCAASGRIFYNYAMGWYRQAPGKERELVAAISVSGGSTYYADSVKGRFTISRDNAKNTVYLQMISMKPEDTAVYYCATYSSRQRKSSYYYGGQGTQVTVSS | high polyreactivity |
| QVQLVESGGGLVQAGVSLRLSCAASGRIFDRNAMGWYRQAPGKERELVARISRTGGSTYYADSVKGRFTISRDNAKNTVYLQMNSLKPEDTAVYYSAASRGGGYDYWGQGTQVTVSS | high polyreactivity |
| QVQLVESGGGLVQAGGSLRLSCAASGRIFRANAMGWYRQAPGKEGELVAAISRSAGSTYYADSVKGRFTISRDKAKNTVYLQMNSLKPEDTAVYYCAAVVRNPGTYDYWGQGTQVTVSS | high polyreactivity |
| QVQLVESGGGLVQAGGSLRLSCAASGFIFRVNAMGWYRPAPGKERELVAAITKSGGSTYYADSVKGRFTISRDNAKNTVYLQMNSLKPEDTAVYYCNVVWYEGYGHWGQGTQVTVSS | low polyreactivity |
| QVQLVESGGGLVQAGGSLRLSCAASGRTFIVNAMGWYRQAPGKERELVAAITKGARTYYADSVKGRFTISRDNAKNTVYLQMNSLKPEDSAVYYCAAVSYTQSHAYWGTGYRYGYWGQGTQVTVSS | high polyreactivity |
| QVQLVESGGGLVQAGGSLRLSCAASGRIFSPYTMGWYRQAPGKERELVAAINERGTSTYYADTVKGRFSISRDNAKNTVYLQKNSLKPEDTAVYYCAARVRQRRYGTTSGGYDYWGQGTQVTVSS | high polyreactivity |
| QVQLVESGGGLVQAGGSLRLSCAASGFIFAGYPMGWYRQAPGKERELVAGITRNGGSTYYADSVKGRFTISRDNAKNTVYLQMNSLKPEDPAVYYCAATRYSFGPRRVDYWGQGTQVTVSS | high polyreactivity |
| QVQLVESGGGLVQAGGSLRLSCAASGFIFWYYAMGWYRQAPGKERELVARITRIGGRTYYADSVKGRFTISRDNAKNTVYLQMNSLKPEDTAVYYCAKDVDKYRYDYWGQGTQVTVSS | high polyreactivity |
| QVQLVESGGGLVQAGGSLRLICAASGRTFGGYAMASYRQAPGKERELVAAITYSGSSTYYADSVKGRFTISRDNAKNTVYLQMNSLKPEDTAVYYCAARGRQTWYNYWGQGTQVTVSS | high polyreactivity |
| QVQLVESGGGLVQAGGSLRLTCAASGFIFGYNAMGWYRQAPGKERELVAAISSSGGSTYYADSVKGRFTISRDNAKNTVSLQMNSLKPEDTAVYYCAARPVALRKYDYWGQGTQVTVSS | low polyreactivity |
| QVKLVESGGGLVQAGGSRRLSCAASGLIFYSYAMGWSRQAPGKERELVAAISSRGGSTYYADSVKGRFTISRDNAKNTVYLQMNSLKPDDTAVYYCNAYFLLPHYDYWGQGTQVTVSS | low polyreactivity |

From the nanobody polyreactivity screen of Harvey et al. (2022)
